For five substances, Kd and stoichiometry N results are on record in PMC2267215.

For assay [1], the target named is NCAM 1FN3–2FN3 (wild-type FN3 domain tandem of human neural cell adhesion molecule) (human). The assay is described as follows: SPR; Biacore 3000, 25 °C; NCAM 1FN3–2FN3 proteins amine-coupled to a CM4 chip (1800 RU wild type, 1900 RU M610R); analytes FGFR1 D1–D3 or D2–D3 at 1–100 μM; HBS-EP running buffer, analytes in PBS; KD estimated from plateau values at equilibrium, very approximate.

For assay [2], the target named is FGFR1 D2-D3 (Homo sapiens) (UniProt P11362). The settings on record: cited from earlier work.
Assay [3] concerns the target NCAM 1FN3–2FN3 M610R mutant (human). The assay is described as follows: SEC; size-exclusion chromatography of the purified NCAM 1FN3–2FN3 proteins; data not shown. On the technique in general: SEC sorts molecules by how far they enter the pores of the column.
Assay [4] has as its target NCAM 1FN3–2FN3 R690E mutant (human). The description is as above.
Assay [5] concerns the target NCAM 1FN3–2FN3 Y672E mutant (human). Described as above.

By Kd is commonly meant the constant that tells how readily two partners part at equilibrium. For the substance “FGFR1 D2–D3 (soluble ectodomain construct of fibroblast growth factor receptor 1, residues 151–364) (from UniProt P11362 151-364) (domain or fragment)”, the Kd in assay [1] was > 100 µM.
NCAM 1FN3-2FN3 (from UniProt P13591): in assay [2], the Kd is 10 µM.
As a reminder, the stoichiometry N is the number of molecules, sites or subunits per partner or assembly. In assay [3], “NCAM 1FN3–2FN3 M610R mutant (domain or fragment)” returned a stoichiometry N of 2.
Take “NCAM 1FN3–2FN3 R690E mutant (domain or fragment)”: in assay [4], the stoichiometry N turned out to be 2.
The substance “NCAM 1FN3–2FN3 Y672E mutant (domain or fragment)” gave a stoichiometry N in assay [5] of 2.
